Laboratory results published in doi:10.1101/2025.11.05.686565 (bioRxiv, 2025).

Biological target: the molecule itself
Assay: cryo-EM structure

B1: full-length, strep-tagged human Wdr37 (natural protein, UniProt Q9Y2I8 1-494, looked up)
chain: MPTESASCSTARQTKQKRKSHSLSIRRTNSSEQERTGLPRDMLEGQDSKLPSSVRSTLLELFGQIEREFENLYIENLELRREIDTLNERLAAEGQAIDGAELSKGQLKTKASHSTSQLSQKLKTTYKASTSKIVSSFKTTTSRAACQLVKEYIGHRDGIWDVSVAKTQPVVLGTASADHTALLWSIETGKCLVKYAGHVGSVNSIKFHPSEQLALTASGDQTAHIWRYAVQLPTPQPVADTSISGEDEVECSDKDEPDLDGDVSSDCPTIRVPLTSLKSHQGVVIASDWLVGGKQAVTASWDRTANLYDVETSELVHSLTGHDQELTHCCTHPTQRLVVTSSRDTTFRLWDFRDPSIHSVNVFQGHTDTVTSAVFTVGDNVVSGSDDRTVKVWDLKNMRSPIATIRTDSAINRINVCVGQKIIALPHDNRQVRLFDMSGVRLARLPRSSRQGHRRMVCCSAWSEDHPVCNLFTCGFDRQAIGWNINIPALLQEK
Which “stoichiometry N” value does the source give for B1 here?
Its value is 2.
